From patent US20230391872A1 (ANAPTYSBIO, published 2023)

What was measured:
[1] = biological target: β-galactosidase enzyme donor (ED)-tagged human BTLA on Jurkat cells (human, UniProt Q7Z6A9 31-289); assay: cell-based or functional assay
[2] = biological target: T1, cynomolgus monkey BTLA ECD-his (monomeric cynomolgus monkey BTLA-his) (cynomolgus monkey, UniProt A0A2K5W7M7 31-157); assay: SPR (Biacore T200), antibody captured on anti-human IgG chip, monomeric BTLA-his flowed at 60, 20, 6.7 and 2.2 nM, 1:1 binding model, 25 C [lower right panel (Cyno BTLA]
T1 construct: extracellular domain; also called cynomolgus monkey BTLA extracellular domain
T1 sequence: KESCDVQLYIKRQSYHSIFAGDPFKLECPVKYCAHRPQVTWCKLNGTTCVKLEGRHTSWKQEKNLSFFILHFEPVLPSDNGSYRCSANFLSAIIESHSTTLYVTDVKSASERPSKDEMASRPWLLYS
Protocol: Surface plasmon resonance (SPR) analyses were carried out using a Biacore T200 (GE Healthcare Life Sciences). Kinetic constants were determined using a 1:1 binding model in the Biacore T200 Evaluation Software to calculate on- and off-rates (kₐ and kd, respectively), and dissociation constants as a measure of overall affinity (KD). Anti-human IgG (GE Healthcare Life Sciences) was immobilized on a CMS chip using EDC-activated amine coupling chemistry (420 seconds contact at a flow rate of 10 μl/min). Antibodies (APE10585.04 6G3 IgG1 and APE10840.05 6G3 IgG4), each at 0.5 μg/m1) were captured in a 60 second contact with the flow cell using a flow rate of 10 μl/min. Monomeric human BTLA-his or cynomolgus monkey BTLA-his at 60 nM, 20 nM, 6.7 nM and 2.2 nM concentrations was flowed over captured antibody (480 seconds association, 1800 seconds dissociation). Runs were at 25° C. and used buffer containing 10 mM HEPES, pH 7.6, 150 mM NaCl, 3 mM EDTA, 0.05% polysorbate 20 (HBS-EP+, pH 7.6; Teknova) for the mobile phase and all dilutions. At the end of each cycle, bound antigen was removed by regeneration with two successive exposures (60 seconds and 90 seconds) to 3 M MgCl2 (30 μl/min). Sensorgrams and binding constants corresponding to the experiment are shown in FIG. 1 (human BTLA) and FIG. 1 (cynomolgus monkey BTLA). Antibody capture levels in resonance units (RU) are listed at the right side of each panel.

B1: 6G3 IgG4 anti-BTLA antibody (APE10840 / APE12839 / APE13308) (antibody, V domains shown)
VH: QVQLVQSGAEVKKPGSSVKVSCKASGYVFSTSWMNWVRQAPGQGLEWMGRIYPGDADTNYVGKFKGRVTITADKSTTTAYMELSSLRSEDTAVYFCAKSGTFNFGNYRWYFDVWGKGTTVTVSS
VL: AIQLTQSPSSLSASVGDRVTITCRVSENIYSHLAWYQQKPGKAPKLLIYAATNLALGVPSRFSGSGSGTDYTLTISSLQPEDFATYYCQLFWGPPLTFGGGTKVEIKR
notes: Humanized antibody from a mouse hybridoma, tested as human IgG4 (detected with anti-human kappa); Some assays used labelled lots (DyLight 650, AF647, biotin, DyL488); also called 6G3 antibody; APE10840.03
EC50, SHP2 recruitment PathHunter Jurkat BTLA signaling assay with U-2 OS hFcγRIa cells [1]: 0.0093 µg/mL
EC50, SHP2 recruitment PathHunter Jurkat BTLA signaling assay, soluble antibody [1]: 0.125 µg/mL
fold increase of agonist potency with cell-associated FcγRIa against the assay without FcγRIa [1]: ~13 fold
Kd [2]: 11.2 nM
koff [2]: 0.00393 s⁻¹
kon [2]: 351000 M⁻¹ s⁻¹
